The values that follow come from patent publication US20050008628A1.

The assay has as its target mutant voltage gated potassium channel (Kv1.3). In words: cell-based or functional assay.

Take “Margatoxin (from UniProt P40755 1-39) (peptide)”: the local ventricular effective refractory period (ERP) at graft site after MTx, one rat (170 ms before MTx) is 100 ms.
